In patent publication US8796201B2 (The Board of Trustees of the Leland Stanford Junior …, priority 2002, dated 2014):

B1: PEP: prolyl endopeptidase; Examples 1-2: from Flavobacterium meningosepticum (US Biological); Example 11: source not stated (protein, UniProt P27028 21-705, looked up)
Prolyl endopeptidase: QNSNVLKYPETKKVSHTDTYFGTQVSDPYRWLEDDRAEDTKAWVQQEVKFTQDYLAQIPFRDQLKKQLMDIWNYEKISAPFKKGKYTYFSKNDGLQAQSVLYRKDAAGKTEVFLDPNKFSEKGTTSLASVSFNKKGTLVAYSISEGGSDWNKIIILDAETKKQLDETLLDVKFSGISWLGDEGFFYSSYDKPKEGSVLSGMTDKHKVYFHKLGTKQSQDELIIGGDKFPRRYIGAYVTDDQRYLVVSAANATNGNELYIKDLKNKTDFIPIITGFDSNVNVADTDGDTLYLFTDKDAPNKRLVKTTIQNPKAETWKDVIAETSEPLEINTGGGYFFATYMKDAIDQVKQYDKNGKLVRAIKLPGSGNASGFGGEKTEKDLYYSFTNYITPPTIFKYNVTTGNSEVYQKPKVKFNPENYVSEQVFYTSSDGTKIPMMISYKKGLKKDGKNPTILYSYGGFNISLQPAFSVVNAIWMENGGIYAVPNIRGGGEYGKKWHDAGTKMQKKNVFNDFIAAGEYLQKNGYTSKEYMALSGRSNGGLLVGATMTMRPDLAKVAFPGVGVLDMLRYNKFTAGAGWAYDYGTAEDSKEMFEYLKSYSPVHNVKAGTCYPSTMVITSDHDDRVVPAHSFKFGSELQAKQSCKNPILIRIETNAGHGAGRSTEQVVAENADLLSFALYEMGIKSLK
B2: FM PEP: recombinant prolyl endopeptidase from Flavobacterium meningosepticum (Genbank D10980) (protein)
chain: QNSNVLKYPETKKVSHTDTYFGTQVSDPYRWLEDDRAEDTKAWVQQEVKFTQDYLAQIPFRDQLKKQLMDIWNYEKISAPFKKGKYTYFSKNDGLQAQSVLYRKDAAGKTEVFLDPNKFSEKGTTSLASVSFNKKGTLVAYSISEGGSDWNKIIILDAETKKQLDETLLDVKFSGISWLGDEGFFYSSYDKPKEGSVLSGMTDKHKVYFHKLGTKQSQDELIIGGDKFPRRYIGAYVTDDQRYLVVSAANATNGNELYIKDLKNKTDFIPIITGFDSNVNVADTDGDTLYLFTDKDAPNKRLVKTTIQNPKAETWKDVIAETSEPLEINTGGGYFFATYMKDAIDQVKQYDKNGKLVRAIKLPGSGNASGFGGEKTEKDLYYSFTNYITPPTIFKYNVTTGNSEVYQKPKVKFNPENYVSEQVFYTSSDGTKIPMMISYKKGLKKDGKNPTILYSYGGFNISLQPAFSVVNAIWMENGGIYAVPNIRGGGEYGKKWHDAGTKMQKKNVFNDFIAAGEYLQKNGYTSKEYMALSGRSNGGLLVGATMTMRPDLAKVAFPGVGVLDMLRYNKFTAGAGWAYDYGTAEDSKEMFEYLKSYSPVHNVKAGTCYPSTMVITSDHDDRVVPAHSFKFGSELQAKQSCKNPILIRIETNAGHGAGRSTEQVVAENADLLSFALYEMGIKSLK
B3: MX PEP: novel recombinant prolyl endopeptidase from Myxococcus xanthus (Genbank AF127082, SEQ ID NO:47) (protein, listed as Myxococcus xanthus)
chain: MSYPATRAEQVVDTLHGVQVADPYRWLEDEKAPEVQTWMTAQNAHAREALAKFPGREALAARFKELFYTDSVSTPSRRNGRFFYVRTHKDKEKAILYWRQGESGQEKVLLDPNGWSKDGTVSLGTWAVSWDGKKVAFAQKPNAADEAVLHVIDVDSGEWSKVDVIEGGKYATPKWTPDSKGFYYEWLPTDPSIKVDERPGYTTIRYHTLGTEPSKDTVVHERTGDPTTFLQSDLSRDGKYLFVYILRGWSENDVYWKRPGEKDFRLLVKGVGAKYEVHAWKDRFYVLTDEGAPRQRVFEVDPAKPARASWKEIVPEDSSASLLSVSIVGGHLSLEYLKDATSEVRVATLKGKPVRTVQLPGVGAASNLMGLEDLDDAYYVFTSFTTPRQIYKTSVSTGKSELWAKVDVPMNPEQYQVEQVFYASKDGTKVPMFVVHRKDLKRDGNAPTLLYGYGGFNVNMEANFRSSILPWLDAGGVYAVANLRGGGEYGKAWHDAGRLDKKQNVFDDFHAAAEYLVQQKYTQPKRLAIYGGSNGGLLVGAAMTQRPELYGAVVCAVPLLDMVRYHLFGSGRTWIPEYGTAEKPEDFKTLHAYSPYHHVRPDVRYPALLMMAADHDDRVDPMHARKFVAAVQNSPGNPATALLRIEANAGHGGADQVAKAIESSVDLYSFLFQVLDVQGAQGGVAAQGR

Tests used:
33-mer gliadin peptide = test: In vivo endopeptidase activity: co-perfusion of 33-mer and PEP in rat jejunum
Method: FIG. 7. Breakdown and detoxification of 33-mer gliadin peptide with PEP.
FIG. 14. (SEQ ID NO:12) Proteolysis of […] (5 μM) co-perfused with individual PEP's (0.1 μM) in the small intestinal lumen of an anesthetized rat. Each enzyme-substrate mixture was introduced via a catheter into a 15-20 cm segment of the upper jejunum. Samples were collected at the other end of the segment, and analyzed by UV-HPLC (215 nm). The control without any PEP is shown in the top trace.
In accordance with the methods of the invention, a prolyl endopeptidase can catalyze breakdown of this peptide, thereby diminishing its toxic effects. […] The ability of this PEP to clear the 33-mer gliadin peptide was evaluated via in vitro and in vivo experiments.
In Vivo Endopeptidase Activity. An adult (female or male) rat was anesthetized and maintained at 36-37° C. during the entire surgical procedure. The peritoneal cavity was opened, and a small incision was made at the beginning and the end of a 15-20 cm jejunum segment. Polyethylene catheters were inserted and secured into the two ends. The input catheter was connected with a pump-driven syringe filled with a solution. […] The collected digestive products were analyzed by HPLC on a C18 column.
In Vivo Hydrolysis. […] In this live animal model, the impact of concerted action of the perfused (luminal) PEP and the brush border (surface) peptidases is assessed.

[1] = tested on: trypsin, chymotrypsin, elastase and carboxypeptidase A; test: Pancreatic protease stability; format: in vitro ADME; conditions: pH 6.5
Method: FIG. 9. Resistance of the FM PEP and the MX PEP to inactivation by gastric and pancreatic enzymes. Pancreatic enzyme stability was evaluated by treating 5 U/ml of the FM PEP and the MX PEP with 1 mg/ml trypsin, 1 mg/ml chymotrypsin, 0.2 mg/ml elastase and 0.2 mg/ml carboxypeptidase A (40 mM phosphate, pH=6.5). Pepsin stability was tested by treating the FM PEP and the MX PEP (5 U/ml) with 1 mg/ml pepsin (pH=2, 20 mM HCl).
Gastric and Pancreatic Protease Stability. […] Absorption was measured at 410 nm for 1 to 2 min every 10 s to assay residual activity. […] Enzyme activities are expressed as a percentage of the maximum activity, typically observed at the zero time point.
PEP Stability. […] We therefore evaluated the extent to which the activity of each PEP remains intact after 10 min of incubation at selected pH values between 1.6 and 3.9. […] Since therapeutic efficacy would require a PEP to act upon gluten in conjunction with pancreatic proteases that are secreted into the duodenum, the resistance of FM PEP and MX PEP toward both gastric and pancreatic enzymes was evaluated. For this we pre-incubated the enzymes with physiological quantities of either pepsin (at pH 2) or a cocktail comprising of trypsin, chymotrypsin, elastase and carboxypeptidase A (at pH 6.5).

[2] = Enzyme activity vs. pH (kcat titration); format: biochemical; conditions: for active site pKa: 100-4000 μM succinyl-Ala-Pro-pNA
Method: FIG. 8. Effect of pH on the turnover numbers (kcat) of FM PEP, MX PEP and SC PEP.
Activity Assays. Post-proline cleavage activity was measured using Z-Gly-Pro-p-nitroanilide and Succinyl-Ala-Pro-p-nitroanilide (Bachem, CA). Z-Gly-Pro-pNA was dissolved in a PBS:water:dioxane (8:1.2:0.8) assay mixture. The concentration of Z-Gly-Pro-pNA was varied from 100-600 μM. Although the substrate Z-Gly-Pro-pNA was effective in detecting enzyme activity, its insolubility at higher concentrations precluded kinetic measurements under substrate-saturated conditions. In contrast, Succinyl-Ala-Pro-pNA, had the advantage of high water solubility at all pH values tested, and was therefore a preferred substrate for kinetic studies. […] Reaction mixtures ([…] consisted of 30 μl of 10× pH buffer, final concentration of 0.01 μM enzyme, and Suc-Ala-Pro-pNA to final concentrations between 100 μM to 4 mM.
Enzyme Activity vs. pH. The luminal environment of the duodenum is approximately at pH 6. Therefore, a therapeutically useful PEP must retain high specific activity at that pH. The steady state turnover rate, kcat, of each PEP was titrated in various pH conditions using 100-4000 μM succinyl-Ala-Pro-pNA, shown in FIG. 8. […] Such conformational changes have been implicated in the catalytic cycle of the structurally characterized porcine brain PEP.

Molecule	detoxification (clearance) of the 33-mer gliadin peptide (33-mer gliadin peptide; rat BBM and co-perfusion in intact rat intestines)	breakdown of the 33-mer co-perfused in rat jejunum (33-mer gliadin peptide; 5 μM 33-mer, 0.1 μM PEP, 15-20 cm segment)	resistance to pancreatic enzymes [1]	active site pKa [2]	pH optimum ([2]; as stated in the description, no method given)
B1	this detoxification was demonstrated				
B2		promoted more complete breakdown of the 33-mer than both the MX and the SC PEP	remarkably stable to destruction	~6	~7
B3			remarkably stable to destruction	~6	
